Patent US20210388110A1 (published 2021)
Read-outs that look alike come from different tables or passages of the source.

Legend:
soluble human GPC3 [1] = target: T1, soluble human GPC3 (human, UniProt P51654 25-563, limits assumed); test: SPR (Biacore), single-arm antibody, soluble human GPC3
T1 construct: also called glypican 3

soluble human GPC3 [2] = target: T1, soluble human GPC3; test: as above; remark: listed apart in the source

T1 sequence (P51654 other isoform, or with tags, fused parts or gaps limits assumed, form in doubt): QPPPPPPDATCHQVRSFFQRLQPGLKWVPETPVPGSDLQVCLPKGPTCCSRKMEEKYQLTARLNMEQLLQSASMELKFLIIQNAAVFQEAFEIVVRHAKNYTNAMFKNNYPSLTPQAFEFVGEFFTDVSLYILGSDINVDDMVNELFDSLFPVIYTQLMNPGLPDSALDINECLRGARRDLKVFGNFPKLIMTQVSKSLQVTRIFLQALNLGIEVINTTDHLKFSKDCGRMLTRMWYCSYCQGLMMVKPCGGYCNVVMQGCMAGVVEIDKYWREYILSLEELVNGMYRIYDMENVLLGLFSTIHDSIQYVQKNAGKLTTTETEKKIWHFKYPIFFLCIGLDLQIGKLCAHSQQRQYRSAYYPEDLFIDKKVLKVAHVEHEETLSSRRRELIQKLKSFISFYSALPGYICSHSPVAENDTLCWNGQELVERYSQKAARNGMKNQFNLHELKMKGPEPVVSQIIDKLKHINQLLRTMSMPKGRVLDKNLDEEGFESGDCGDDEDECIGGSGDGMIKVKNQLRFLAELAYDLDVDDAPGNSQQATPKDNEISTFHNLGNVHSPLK

Binder	Kd (soluble human GPC3 [1]) [nM]	Kd (soluble human GPC3 [2]) [nM]
H0610-G1dh/none-Hi-Kn010G3/L0000-k0 (antibody, human IgG1, kappa, single-arm antibody) heavy: not shown EPKSSDKTHTCPPCPAPELLGGPSVFLFPPKPKDTLMISRTPEVTCVVVDVSHEDPEVKFNWYVDGVEVHNAKTKPREEQYNSTYRVVSVLTVLHQDWLNGKEYKCKVSNKALPAPIEKTISKAKGQPREPQVCTLPPSRDELTKNQVSLWCLVKGFYPSDIAVEWESNGQPENNYKTTPPVLDSDGSFFLYSKLTVDKSRWQQGNVFSCSVMHEALHNRYTQKSLSLSP light: DIVMTQSPLSLPVTPGEPASISCRSSQSLVHSNRNTYLHWYQQKPGQAPRLLIYKVSNRFSGVPDRFSGSGSGTDFTLKISRVEAEDVGVYYCGQGTQVPYTFGQGTKLEIKRTVAAPSVFIFPPSDEQLKSGTASVVCLLNNFYPREAKVQWKVDNALQSGNSQESVTEQDSKDSTYSLSSTLTLSKADYEKHKVYACEVTHQGLSSPVTKSFNRGEC	4.16	–
H0610-G1dh/none-Hi-Kn010G3/TR01L005-k0 (antibody, human IgG1, kappa, single-arm antibody) heavy: not shown EPKSSDKTHTCPPCPAPELLGGPSVFLFPPKPKDTLMISRTPEVTCVVVDVSHEDPEVKFNWYVDGVEVHNAKTKPREEQYNSTYRVVSVLTVLHQDWLNGKEYKCKVSNKALPAPIEKTISKAKGQPREPQVCTLPPSRDELTKNQVSLWCLVKGFYPSDIAVEWESNGQPENNYKTTPPVLDSDGSFFLYSKLTVDKSRWQQGNVFSCSVMHEALHNRYTQKSLSLSP light: DIVMTQSPLSLPVTPGEPASISCRSSQSLVHSNRNTYLHWYLQKPGQSPQLLIYKVSNRFSGVPDRFSGSGSGTDFTLKISRVEAEDVGVYYCGQGTQVPYTFGQGTKVEIERTVAAPSVFIFPPSDEQLKSGTASVVCLLNNFYPREAKVQWKVDNALQSGNSQESVTEQDSKDSTYSLSSTLTLSKADYEKHKVYACEVTHQGLSSPVTKSFNRGEC	–	5.37
H0610-G1dh/none-Hi-Kn010G3/L0232-k0 (antibody, human IgG1, kappa, single-arm antibody) heavy: not shown EPKSSDKTHTCPPCPAPELLGGPSVFLFPPKPKDTLMISRTPEVTCVVVDVSHEDPEVKFNWYVDGVEVHNAKTKPREEQYNSTYRVVSVLTVLHQDWLNGKEYKCKVSNKALPAPIEKTISKAKGQPREPQVCTLPPSRDELTKNQVSLWCLVKGFYPSDIAVEWESNGQPENNYKTTPPVLDSDGSFFLYSKLTVDKSRWQQGNVFSCSVMHEALHNRYTQKSLSLSP light: DIVMTQSPLSLPVTPGEPASISCRSSESLVHSNRNTYLHWYQQKPGQAPRLLIYKVSNRFSGVPDRFSGSGSGTDFTLKISRVEAEDVGVYYCGQGTQVPYTFGQGTKLEIKRTVAAPSVFIFPPSDEQLKSGTASVVCLLNNFYPREAKVQWKVDNALQSGNSQESVTEQDSKDSTYSLSSTLTLSKADYEKHKVYACEVTHQGLSSPVTKSFNRGEC	–	5.38
H0610-G1dh/none-Hi-kn010G3/L0106-k0 (antibody, human IgG1, kappa, single-arm antibody) heavy: not shown EPKSSDKTHTCPPCPAPELLGGPSVFLFPPKPKDTLMISRTPEVTCVVVDVSHEDPEVKFNWYVDGVEVHNAKTKPREEQYNSTYRVVSVLTVLHQDWLNGKEYKCKVSNKALPAPIEKTISKAKGQPREPQVCTLPPSRDELTKNQVSLWCLVKGFYPSDIAVEWESNGQPENNYKTTPPVLDSDGSFFLYSKLTVDKSRWQQGNVFSCSVMHEALHNRYTQKSLSLSP light: DIVMTQSPLSLPVTPGEPASISCRSSQSLVHSNRNTYLHWYQQKPGQAPRLLIYKVSHRFSGVPDRFSGSGSGTDFTLKISRVEAEDVGVYYCGQGTQVPYTFGQGTKLEIKRTVAAPSVFIFPPSDEQLKSGTASVVCLLNNFYPREAKVQWKVDNALQSGNSQESVTEQDSKDSTYSLSSTLTLSKADYEKHKVYACEVTHQGLSSPVTKSFNRGEC	–	5.66
H0610-G1dh/none-Hi-kn010G3/L0137-k0 (antibody, human IgG1, kappa, single-arm antibody) heavy: not shown EPKSSDKTHTCPPCPAPELLGGPSVFLFPPKPKDTLMISRTPEVTCVVVDVSHEDPEVKFNWYVDGVEVHNAKTKPREEQYNSTYRVVSVLTVLHQDWLNGKEYKCKVSNKALPAPIEKTISKAKGQPREPQVCTLPPSRDELTKNQVSLWCLVKGFYPSDIAVEWESNGQPENNYKTTPPVLDSDGSFFLYSKLTVDKSRWQQGNVFSCSVMHEALHNRYTQKSLSLSP light: DIVMTQSPLSLPVTPGEPASISCRSSQSLVHSNRNTYLHWYQQKPGQAPRLLIYKVSNRFGGVPDRFSGSGSGTDFTLKISRVEAEDVGVYYCGQGTQVPYTFGQGTKLEIKRTVAAPSVFIFPPSDEQLKSGTASVVCLLNNFYPREAKVQWKVDNALQSGNSQESVTEQDSKDSTYSLSSTLTLSKADYEKHKVYACEVTHQGLSSPVTKSFNRGEC	–	5.87

Further binders by falling Kd (soluble human GPC3 [2]), results first:

Kd (soluble human GPC3 [1]) [nM]	Kd (soluble human GPC3 [2]) [nM]	Binder
–	5.08	H0610-G1dh/none-Hi-Kn010G3/TR01L003-k0 (antibody, human IgG1, kappa, single-arm antibody) heavy: not shown EPKSSDKTHTCPPCPAPELLGGPSVFLFPPKPKDTLMISRTPEVTCVVVDVSHEDPEVKFNWYVDGVEVHNAKTKPREEQYNSTYRVVSVLTVLHQDWLNGKEYKCKVSNKALPAPIEKTISKAKGQPREPQVCTLPPSRDELTKNQVSLWCLVKGFYPSDIAVEWESNGQPENNYKTTPPVLDSDGSFFLYSKLTVDKSRWQQGNVFSCSVMHEALHNRYTQKSLSLSP light: DIVMTQSPLSLPVTPGEPASISCRSSQSLVHSNRNTYLHWYQQKPGQAPRLLIYKVSNRFSGVPDRFSGSGSGTDFTLKISRVEAEDVGVYYCGQGTQVPYTFGQGTKVEIERTVAAPSVFIFPPSDEQLKSGTASVVCLLNNFYPREAKVQWKVDNALQSGNSQESVTEQDSKDSTYSLSSTLTLSKADYEKHKVYACEVTHQGLSSPVTKSFNRGEC
–	4.92	H0610-G1dh/none-Hi-Kn010G3/L0187-k0 (antibody, human IgG1, kappa, single-arm antibody) heavy: not shown EPKSSDKTHTCPPCPAPELLGGPSVFLFPPKPKDTLMISRTPEVTCVVVDVSHEDPEVKFNWYVDGVEVHNAKTKPREEQYNSTYRVVSVLTVLHQDWLNGKEYKCKVSNKALPAPIEKTISKAKGQPREPQVCTLPPSRDELTKNQVSLWCLVKGFYPSDIAVEWESNGQPENNYKTTPPVLDSDGSFFLYSKLTVDKSRWQQGNVFSCSVMHEALHNRYTQKSLSLSP light: DIVMTQSPLSLPVTPGEPASISCRSSQSLVHSNRNTYLHWYQQKPGQAPRLLIYKVSNRFSGVPDRFSGSGSGTDFTLKISRVEAEDVGVYYCGQGTQYPYTFGQGTKLEIKRTVAAPSVFIFPPSDEQLKSGTASVVCLLNNFYPREAKVQWKVDNALQSGNSQESVTEQDSKDSTYSLSSTLTLSKADYEKHKVYACEVTHQGLSSPVTKSFNRGEC
–	4.48	H0610-G1dh/none-Hi-Kn010G3/L0180-k0 (antibody, human IgG1, kappa, single-arm antibody) heavy: not shown EPKSSDKTHTCPPCPAPELLGGPSVFLFPPKPKDTLMISRTPEVTCVVVDVSHEDPEVKFNWYVDGVEVHNAKTKPREEQYNSTYRVVSVLTVLHQDWLNGKEYKCKVSNKALPAPIEKTISKAKGQPREPQVCTLPPSRDELTKNQVSLWCLVKGFYPSDIAVEWESNGQPENNYKTTPPVLDSDGSFFLYSKLTVDKSRWQQGNVFSCSVMHEALHNRYTQKSLSLSP light: DIVMTQSPLSLPVTPGEPASISCRSSQSLVHSNRNTYLHWYQQKPGQAPRLLIYKVSNRFSGVPDRFSGSGSGTDFTLKISRVEAEDVGVYYCGQGTQNPYTFGQGTKLEIKRTVAAPSVFIFPPSDEQLKSGTASVVCLLNNFYPREAKVQWKVDNALQSGNSQESVTEQDSKDSTYSLSSTLTLSKADYEKHKVYACEVTHQGLSSPVTKSFNRGEC
–	4.38	H0610-G1dh/none-Hi-Kn010G3/L0147-k0 (antibody, human IgG1, kappa, single-arm antibody) heavy: not shown EPKSSDKTHTCPPCPAPELLGGPSVFLFPPKPKDTLMISRTPEVTCVVVDVSHEDPEVKFNWYVDGVEVHNAKTKPREEQYNSTYRVVSVLTVLHQDWLNGKEYKCKVSNKALPAPIEKTISKAKGQPREPQVCTLPPSRDELTKNQVSLWCLVKGFYPSDIAVEWESNGQPENNYKTTPPVLDSDGSFFLYSKLTVDKSRWQQGNVFSCSVMHEALHNRYTQKSLSLSP light: DIVMTQSPLSLPVTPGEPASISCRSSQSLVHSNRNTYLHWYQQKPGQAPRLLIYKVSNRFVGVPDRFSGSGSGTDFTLKISRVEAEDVGVYYCGQGTQVPYTFGQGTKLEIKRTVAAPSVFIFPPSDEQLKSGTASVVCLLNNFYPREAKVQWKVDNALQSGNSQESVTEQDSKDSTYSLSSTLTLSKADYEKHKVYACEVTHQGLSSPVTKSFNRGEC
